How the values were obtained:
[1] = molecular target: T1, GST-GSG-CreGO (glycolate oxidase CreGO) (Chlamydomonas reinhardtii, UniProt F8WQN2, Y27S/V111G, form not given); conditions: read-out: GST-GSG-CreGO-Y27S/V212R/V111G; 10 mM phenylhydrazine, 100 mM PBS pH 6.5, 40 °C; O2 as co-substrate; substrate range 0-100 mM; V111G is misprinted V11G in parts of the text
T1 construct: gene CHLRE_03g171300v5

[2] = substrate: O=C(O)CO; test: purified protein; conditions: 10 mM phenylhydrazine, 100 mM PBS pH 6.5, 40 °C, O2 as co-substrate, substrate range 0-100 mM

T1 sequence (F8WQN2 whole entry Y27S/V111G, form open): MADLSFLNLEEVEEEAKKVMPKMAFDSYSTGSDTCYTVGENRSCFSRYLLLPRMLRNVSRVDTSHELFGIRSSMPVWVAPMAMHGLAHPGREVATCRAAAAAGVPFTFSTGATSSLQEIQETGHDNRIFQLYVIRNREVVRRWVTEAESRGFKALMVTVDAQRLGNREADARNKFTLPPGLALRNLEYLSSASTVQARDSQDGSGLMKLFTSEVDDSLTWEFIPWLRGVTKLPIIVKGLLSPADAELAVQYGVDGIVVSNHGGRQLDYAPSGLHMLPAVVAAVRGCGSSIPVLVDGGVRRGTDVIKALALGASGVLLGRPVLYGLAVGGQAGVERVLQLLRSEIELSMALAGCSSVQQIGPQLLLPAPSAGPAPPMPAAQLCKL

Row | Molecule | Km [1] [µM] | Km [2] [µM] | Vmax [2] [µmol/min/mg] | kcat [2] [s⁻¹] | kcat/Km [2] [M⁻¹ s⁻¹]
1 | O=C(O)CO [sodium glycolate] | 600 ± 40 | – | – | – | –
2 | GST-GSG-CreGO (glycolate oxidase CreGO) (Chlamydomonas reinhardtii) (protein) MADLSFLNLEEVEEEAKKVMPKMAFDYYSTGSDTCYTVGENRSCFSRYLLLPRMLRNVSRVDTSHELFGIRSSMPVWVAPMAMHGLAHPGREVATCRAAAAAGVPFTFSTVATSSLQEIQETGHDNRIFQLYVIRNREVVRRWVTEAESRGFKALMVTVDAQRLGNREADARNKFTLPPGLALRNLEYLSSASTVQARDSQDGSGLMKLFTSEVDDSLTWEFIPWLRGVTKLPIIVKGLLSPADAELAVQYGVDGIVVSNHGGRQLDYAPSGLHMLPAVVAAVRGCGSSIPVLVDGGVRRGTDVIKALALGASGVLLGRPVLYGLAVGGQAGVERVLQLLRSEIELSMALAGCSSVQQIGPQLLLPAPSAGPAPPMPAAQLCKL | – | 1000 ± 50 | 7.2 | 4.9 | 4900
